Data from patent US20170073386A1 (AstraZeneca / MedImmune, published 2017).
Changes are numbered by the printed parent chain. Names and notes keep the numbering of the source.

B1: hGITRL FP wt (Fc fusion)
chain: QLETAKEPCMAKFGPLPSKWQMASSEPPCVNKVSDWKLEILQNGLYLIYGQVAPNANYNDVAPFEVRLYKNKDMIQTLTNKSKIQNVGGTYELHVGDTIDLIFNSEHQVLKNNTYWGIILLANPQFIS
notes: not shown: detection with anti-FLAG antibody implies a FLAG e
B2: hGITRL FP N92D (Fc fusion, not shown: a dimerising Fc or GST)
chain: LQLETAKEPCMAKFGPLPSKWQMASSEPPCVNKVSDWKLEILQDGLYLIYGQVAPNANYNDVAPFEVRLYKNKDMIQTLTNKSKIQNVGGTYELHVGDTIDLIFNSEHQVLKNNTYWGIILLANPQFIS
B3: hGITRL FP N104D (Fc fusion, not shown: a dimerising Fc or GST)
chain: B2 chain with D44N, N56D
notes: also called N104D GITRL FP
B4: mOX40L-FP mIgG1 (Fc fusion)
chain: VPRDCGCKPCICTVPEVSSVFIFPPKPKDVLTITLTPKVTCVVVDISKDDPEVQFSWFVDDVEVHTAQTQPREEQFNSTFRSVSELPIMHQDWLNGKEFKCRVNSAAFPAPIEKTISKTKGRPKAPQVYTIPPPKEQMAKDKVSLTCMITDFFPEDITVEWQWNGQPAENYKNTQPIMDTDGSYFVYSKLNVQKSNWEAGNTFTCSVLHEGLHNHHTEKSLSHSPGKRLDQDKIEALSNKVQQLERSIGLKDLAMADLEQKVSELEVSTSSPAKDPPIQRLRGAVTRCEDGQLFISSYKNEYQTMEVQNNSVVIKCDGLYIIYLKGSFFQEVKIDLHFREDHNPISIPMLNDGRRIVFTVVASLAFKDKVYLTVNAPDTLCEHLQINDGELIVVQLTPGYCAPEGSYHSTVNQVPL
notes: also called murine OX40L FP mIgG1; Mouse OX40L FP mIgG1
B5: hGITRL FP N161D (Fc fusion)
chain: B1 chain with N112D
notes: as for B1
B6: hGITRL FP N129A (Fc fusion)
chain: B2 chain with D44N, N81A
notes: also called N129A mutated hGITRL FP; not shown: detection with anti-FLAG antibody implies a FLAG e
B7: hGITRL FP N129A/N161D (Fc fusion)
chain: B2 chain with D44N, N81A, N113D
notes: as for B1
B8: hexameric GITRL FP (GCN4 pII) (Fc fusion, not shown: a dimerising Fc or GST; small tags and cut ends)
chain (part 1 of 2): not shown
chain (part 2 of 2): B2 chain with D44N
B9: hexameric GITRL FP (Matrilin 1 wt) (Fc fusion, not shown: a dimerising Fc or GST; small tags and cut ends)
chain (part 1 of 2): CACESLVKFQAKVEGLLQALTRKLEAVSKRLAILENTVV
chain (part 2 of 2): B2 chain with D44N
B10: hexameric GITRL FP (DMPK wt) (Fc fusion, not shown: a dimerising Fc or GST; small tags and cut ends)
chain (part 1 of 2): EAEAEVTLRELQEALEEEVLTRQSLSREMEAIRTDNQNFASQLREAEARNRDLEAHVRQLQERMELLQAE
chain (part 2 of 2): B2 chain with D44N
B11: hexameric GITRL FP (Langerin wt) (Fc fusion, not shown: a dimerising Fc or GST; small tags and cut ends)
chain (part 1 of 2): ASALNTKIRALQGSLENMSKLLKRQNDILQVVS
chain (part 2 of 2): B2 chain with D44N
B12: hexameric GITRL FP (Coronin 1a wt) (Fc fusion, not shown: a dimerising Fc or GST; small tags and cut ends)
chain (part 1 of 2): VSRLEEEMRKLQATVQELQKRLDRLEETVQAK
chain (part 2 of 2): B2 chain with D44N
B13: hexameric GITRL FP (Matrilin 1 variant) (Fc fusion, not shown: a dimerising Fc or GST; small tags and cut ends)
chain (part 1 of 2): B9 chain (part 1 of 2) with L17I, L31I
chain (part 2 of 2): B2 chain with D44N
B14: hexameric GITRL FP (Langerin variant) (Fc fusion, not shown: a dimerising Fc or GST; small tags and cut ends)
chain (part 1 of 2): ISALNTKIRAIQGSIENMSKLIKRQNDIIQVVS
chain (part 2 of 2): B2 chain with D44N
B15: hexameric GITRL FP (Coronin 1a variant) (Fc fusion, not shown: a dimerising Fc or GST; small tags and cut ends)
chain (part 1 of 2): ISRIEEEIRKINATVQELQKRIDRLEETVQAK
chain (part 2 of 2): B2 chain with D44N
B16: hexameric GITRL FP (DMPK variant) (Fc fusion, not shown: a dimerising Fc or GST; small tags and cut ends)
chain (part 1 of 2): IAEIEVTIRELQEAIEEEVLTRQSLSREIEAIRTDIQNIASQLREIEARIRDLEAHVRQLQERMELLQAE
chain (part 2 of 2): B2 chain with D44N

molecular target: T1, human GITR-Fc (human, UniProt Q9Y5U5 26-162, conjugated with europium cryptate in the HTRF assays); test: HTRF competition: titrated FP against binding of GITRL-HA (anti-HA XL665) to europium cryptate hGITR-Fc
T1 construct: also called hGITR-Fc; hGITRFc; not shown: Fc domain of hIgG1
T1 sequence: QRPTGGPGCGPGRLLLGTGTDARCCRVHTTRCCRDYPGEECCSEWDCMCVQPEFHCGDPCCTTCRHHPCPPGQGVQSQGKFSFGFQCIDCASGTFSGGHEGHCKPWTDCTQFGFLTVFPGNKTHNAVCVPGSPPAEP
Protocol: (§1) The effect of the GITRL FP molecules on human GITRL binding to human GITR was determined using a Homogeneous Time Resolved Fluorescence (HTRF) assay.
(§2) The GITRL FP molecules were titrated into an HTRF assay in which binding of GITRL-HA (hemagglutinin tag) to GITR-Fc was measured. The human GITR Fc was conjugated with europium cryptate and an anti-HA antibody conjugated with XL665 was used to detect the GITRL-HA protein. IC₅₀ values were determined by curve fitting the analyzed data to a four parameter logistic equation with Prism 5.01 software (GraphPad).

**Q.** B1 was tested. Which IC50 did it give?
**A.** 0.631 nM

**Q.** How did the IC50 turn out when B2 was run?
**A.** 0.587 nM

**Q.** B3 was tested. Which IC50 did it give?
**A.** 0.529 nM

molecular target: T2, recombinant mouse GITR-Fc (mouse, UniProt O35714 20-153, limits assumed); test: ELISA, coated mouse GITR-Fc, HRP anti-mouse Fc
T2 construct: Bought reagent; construct not described; not shown: Fc
T2 sequence (looked up): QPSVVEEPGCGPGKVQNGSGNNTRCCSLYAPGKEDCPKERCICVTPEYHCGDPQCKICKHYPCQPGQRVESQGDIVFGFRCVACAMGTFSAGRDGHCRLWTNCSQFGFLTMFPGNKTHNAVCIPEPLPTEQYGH
Protocol: (§3) Recombinant mouse GITR-Fc and OX40-Fc (R&D Systems) glycoproteins were coated overnight at 1 μg/mL in PBS onto 96-well plates (Greiner). Plates were washed with PBST (PBS+0.01% Tween-20), blocked for 1 hour at room temperature with PBS containing 1% (w/v) BSA, and washed in PBST again. Twenty-five microlitres of 1 μg/mL mouse GITRL or OX40L FPs diluted in assay buffer [PBS+1% bovine serum albumin (BSA)] was added to wells, and plates were incubated for 2 hours at room temperature. After 3 washes, 25 μL of 1 μg/mL horseradish peroxidase-conjugated anti-mouse Fc antibody (Sigma) diluted in assay buffer was added to each well, and plates were incubated for 1 hour. After incubation, plates were washed 3 times in PBST, 25 μL of tetramethylbenzidine substrate solution (KPL) was added to each well, and plates incubated for 5 minutes. After incubation 15 μL of 0.5 M sulphuric acid stop solution was added to all wells. The optical density at 450 nm was measured using an EnVision plate reader (PerkinElmer).

**Q.** Does B4 bind?
**A.** no binding

molecular target: T1, human GITR-Fc; test: HTRF direct binding, Eu cryptate hGITR-Fc and anti-FLAG XL665, one site saturation fit
Protocol: The hGITRL FP molecules were titrated into an HTRF assay in which binding of the hGITRL FP to hGITR-Fc was measured. The human hGITR Fc was conjugated with europium cryptate and an anti-FLAG antibody conjugated with XL665 was used to detect the hGITRL FP protein. KD values were determined by curve fitting the analyzed data to a one site saturation binding equation with Prism 5.01 software (GraphPad).

**Q.** B1 was tested. Which Kd did it give?
**A.** 1.23 nM

**Q.** Which Kd does the source give for B5 here?
**A.** 1.08 nM

**Q.** For B6, which Kd is on record?
**A.** 3.77 nM

**Q.** With B7 as the binder, how does the Kd read?
**A.** 11.8 nM

molecular target: T3, recombinant mouse OX40-Fc (mouse, UniProt P47741 20-211, limits assumed); test: ELISA, coated mouse OX40-Fc, FP at 1 ug/mL, HRP anti-mouse Fc
T3 construct: Bought reagent; construct not described; not shown: Fc
T3 sequence (looked up): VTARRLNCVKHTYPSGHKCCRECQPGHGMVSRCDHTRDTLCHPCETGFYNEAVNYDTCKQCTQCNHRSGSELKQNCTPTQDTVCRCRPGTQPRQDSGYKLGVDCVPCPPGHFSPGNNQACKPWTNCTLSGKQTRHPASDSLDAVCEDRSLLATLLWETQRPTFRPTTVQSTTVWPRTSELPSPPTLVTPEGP
Protocol: as §3

**Q.** Does B4 bind?
**A.** binds

molecular target: T4, human GITR expressed on cells (human, UniProt Q9Y5U5 26-241); test: cell-based or functional assay
T4 sequence: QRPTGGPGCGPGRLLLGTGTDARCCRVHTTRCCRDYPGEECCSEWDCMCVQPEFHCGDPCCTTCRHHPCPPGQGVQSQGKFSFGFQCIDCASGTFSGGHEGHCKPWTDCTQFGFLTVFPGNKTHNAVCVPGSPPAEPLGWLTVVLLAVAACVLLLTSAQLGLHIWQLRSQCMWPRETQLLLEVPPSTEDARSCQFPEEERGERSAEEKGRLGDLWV

**Q.** B8 was tested. Which “EC50 (nM), human GITR transfected NF-κB luciferase gene reporter cell line” value (“EC50 (nM)” below) did it give?
**A.** 1.02 nM

**Q.** How did the “EC50 (nM)” value turn out when B9 was run?
**A.** 1.12 nM

**Q.** For B10, which “EC50 (nM)” value is on record?
**A.** 1.37 nM

**Q.** Which “EC50 (nM)” value does the source give for B11 here?
**A.** 1.54 nM

**Q.** B12 was tested. Which “EC50 (nM)” value did it give?
**A.** 0.95 nM

**Q.** For B13, which “EC50 (nM)” value is on record?
**A.** 0.9 nM

**Q.** Which “EC50 (nM)” value does the source give for B14 here?
**A.** 0.75 nM

**Q.** Which “EC50 (nM)” value does the source give for B15 here?
**A.** 0.74 nM

**Q.** With B16 as the binder, how does the “EC50 (nM)” value read?
**A.** 1.39 nM

molecular target: T1, human GITR-Fc; test: HTRF competition; competitor GITRL-HA on GITR-Fc
Protocol: as §2, with “The hexameric GITRL FP” for “The GITRL FP”
The effect of a hexameric GITRL IgG1 FP having the monomeric GITRL IgG1 FP subunit sequence of SEQ ID NO: 6 on human GITRL binding to human GITR was determined using a Homogeneous Time Resolved Fluorescence (HTRF) assay. The GITRL IgG1 FP was titrated into an HTRF assay in which binding of GITRL-HA (hemagglutinin tag) to GITR-Fc was measured. The human GITR-Fc was conjugated with europium cryptate and an anti-HA antibody conjugated with XL665 was used to detect the GITRL-HA protein. IC₅₀ values were determined by curve fitting the analyzed data to a four parameter logistic equation with Prism 6.0x software (GraphPad).

**Q.** How did the “fold lower potency than GITRL FP (GCN4)” value turn out when B11 was run?
**A.** 8 fold

molecular target: T1, human GITR-Fc; test: HTRF competition: titrated FP against binding of GITRL-HA (anti-HA XL665) to europium cryptate hGITR-Fc; remark: another data set of the same source
Protocol: as §1, §2

**Q.** Which IC50 does the source give for B1 here?
**A.** 0.696 nM

**Q.** With B5 as the binder, how does the IC50 read?
**A.** 0.63 nM

molecular target: T1, human GITR-Fc; test: HTRF competition; competitor GITRL-HA on GITR-Fc; remark: another data set of the same source
Protocol: The effect of the hexameric GITRL FP molecules on human GITRL binding to human GITR was determined using a Homogeneous Time Resolved Fluorescence (HTRF) assay.
as §2, with “The hexameric GITRL FP” for “The GITRL FP”

**Q.** Which IC50 does the source give for B8 here?
**A.** 1.06 nM

**Q.** With B9 as the binder, how does the IC50 read?
**A.** 1.36 nM

**Q.** With B10 as the binder, how does the IC50 read?
**A.** 2.73 nM

**Q.** For B11, which IC50 is on record?
**A.** 8.05 nM

**Q.** B12 was tested. Which IC50 did it give?
**A.** 0.61 nM

**Q.** For B13, which IC50 is on record?
**A.** 0.83 nM

**Q.** With B14 as the binder, how does the IC50 read?
**A.** 2 nM

**Q.** B15 was tested. Which IC50 did it give?
**A.** 1.44 nM

**Q.** B16 was tested. Which IC50 did it give?
**A.** 2.43 nM
